{"source": "patent US20130136743A1", "about": "(LABORATOIRE FRANCAIS DU FRACTIONNEMENT ET DES …, published 2013)", "binders": {"B1": {"name": "chimeric 12G4 monoclonal antibody (antibody, V domains shown)", "VH": "QVQLQQSGPELVKPGASVRMSCKASGYTFTSYHIHWVKQRPGQGLEWIGWIYPGDDSTKYNEKFKGKTTLTADKSSSTAYMLLSSLTSEDSAIYFCTRGDRFAYWGQGTLVTVSA", "VL": "QIVLTQSPAIMSASLGEGITLTCSASSSVRYIHWYQQKSGTSPKLLIYSTSNLASGVPSRFSGSGSGTFHSLTISSVEAEDAADYYCLQWSSYPWTFGGGTKLEIKR", "notes": "Variable regions without leader joined to the human constant regions; also called 12G4-Chimeric; unmutated chimeric 12G4 antibody"}}, "key": {"[1]": {"target": "T1, AMHR-II/Fc fusion protein (human, UniProt Q16671 18-149, limits assumed)", "T1 construct": "also called AMHR-II recombinant receptor expressed in the form of fusion protein with a region Fc; recombinant target; not shown: Fc region", "assay": "SPR, BIAcore X100; AMHR-II/Fc immobilised on CM5 chip, antibody injected; 25 C", "description": "The affinity of the antibodies for their antigen, AMHR-II, is determined by the SPR (Surface Plasmon Resonance) technique on BIACore X100 (BIACore, GE Healthcare). The AMHR-II recombinant receptor, expressed in the form of fusion protein with a region Fc, is immobilized by covalent coupling between its amine functions and the carboxyl groups of dextran activated in succinimide esters, present on the surface of the type CM5 sensor chip. The COOH groups of the sensor chip are activated for 7 minutes with EDC/NHS mixture (0.1 M of N-hydroxysuccinimide and 0.1 M of 3-(N,N-dimethylamino)propyl-N-ethylcarbodiimide) at a flow of 10 μl/min then the AMHR-II/Fc fusion protein, diluted to 5 μg/ml in 10 mM sodium acetate buffer, pH 4.0, is injected at […] on track 2 of the sensor chip so as to reach 300 RU. The ester groups that have not reacted with the amines of the fusion protein are deactivated by injection of a solution of ethanolamine-HCl 1M, pH 8.5 for 7 min at a flow of 10 μl:min. Track 1, serving as negative control, was activated and deactivated like track 2.\nAll the measurements are carried out at 25° C. The antibodies to be analysed are diluted in HBS-EP running buffer (BIACore, GE Healthcare) at concentrations from 6.25 to 3333 nM and injected on the sensor chip for 2 min at a flow of 30 μl/min. The dissociation step is monitored for 10 min and then the surface is regenerated by injection of 10 mM glycine buffer, pH 1.5 for 30 s at 10 μl/min.\nThe sensorgrams obtained are analysed using the 1:2 kinetic model of the BIAevaluation 3.1 software."}, "[2]": {"target": "T2, AMHR-II human receptor (human, UniProt Q16671 18-573, limits assumed)", "T2 sequence (looked up)": "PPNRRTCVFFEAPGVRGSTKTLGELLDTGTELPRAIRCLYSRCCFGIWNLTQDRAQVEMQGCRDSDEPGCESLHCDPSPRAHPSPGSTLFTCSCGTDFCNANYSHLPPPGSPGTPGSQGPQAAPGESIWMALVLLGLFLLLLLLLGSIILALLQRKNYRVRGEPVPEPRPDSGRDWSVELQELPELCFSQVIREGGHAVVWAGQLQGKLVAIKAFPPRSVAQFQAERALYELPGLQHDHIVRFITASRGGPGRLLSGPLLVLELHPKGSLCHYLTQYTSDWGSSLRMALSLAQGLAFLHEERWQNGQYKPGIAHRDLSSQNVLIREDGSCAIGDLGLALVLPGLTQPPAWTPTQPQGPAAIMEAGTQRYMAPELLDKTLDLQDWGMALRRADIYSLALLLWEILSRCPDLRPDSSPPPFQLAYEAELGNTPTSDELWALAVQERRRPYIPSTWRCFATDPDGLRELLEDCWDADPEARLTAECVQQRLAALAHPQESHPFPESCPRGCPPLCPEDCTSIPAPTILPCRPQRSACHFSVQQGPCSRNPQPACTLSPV", "assay": "method not stated; determined on the AMHR-II human receptor; determined on the AMHR-II human receptor (table footnote), apart from the tabulated 2.35 × 10^-7M"}, "[3]": {"target": "T3, Epitope peptide GGGGNLTQDRAQVEMQGSR", "T3 peptide": "GGGGNLTQDRAQVEMQGSR", "assay": "method not stated; Example 2, heading names cov434-AMHR-II cells and the epitope peptide"}}, "data": [{"binder": "B1", "values": [{"measurement": "Kd", "setting": "[1]", "value": 212, "unit": "nM"}, {"measurement": "koff", "setting": "[1]", "value": 0.00074, "unit": "s⁻¹"}, {"measurement": "kon", "setting": "[1]", "value": 3500, "unit": "M⁻¹ s⁻¹"}, {"measurement": "Kd", "setting": "[2]", "value": "~10", "unit": "nM"}, {"measurement": "Kd", "setting": "[3]", "value": 235, "unit": "nM"}, {"measurement": "koff", "setting": "[3]", "value": 0.00153, "unit": "s⁻¹"}, {"measurement": "kon", "setting": "[3]", "value": 6490, "unit": "M⁻¹ s⁻¹"}]}]}
